Results on twelve molecules are retold here after patent US20160326232A1 (Janssen / Centocor, published 2016).

Residue numbers refer to the chain shown, from its start.

Test [1] addresses T1, cynomolgus monkey PSMA extracellular domain with 6His and Avi tag (PSMW1), biotinylated (cynomolgus monkey, UniProt Q04609 44-750 (human entry), biotinylated ; Biotinylated, presumably on the Avi tag, which is not in the letters. Glycosylated (expressed in HEK cells). PSMA forms a homodimer; one subunit is given.).
T1 construct: Expressed in 293HEK-expi cells; buffer with ZnCl2 to stabilize PSMA dimerization; A cyno PSMA-Fc fusion was also used in some plate-based pannings; also called cyno PSMA; Macaca Fascicularis PSMA
T1 chain: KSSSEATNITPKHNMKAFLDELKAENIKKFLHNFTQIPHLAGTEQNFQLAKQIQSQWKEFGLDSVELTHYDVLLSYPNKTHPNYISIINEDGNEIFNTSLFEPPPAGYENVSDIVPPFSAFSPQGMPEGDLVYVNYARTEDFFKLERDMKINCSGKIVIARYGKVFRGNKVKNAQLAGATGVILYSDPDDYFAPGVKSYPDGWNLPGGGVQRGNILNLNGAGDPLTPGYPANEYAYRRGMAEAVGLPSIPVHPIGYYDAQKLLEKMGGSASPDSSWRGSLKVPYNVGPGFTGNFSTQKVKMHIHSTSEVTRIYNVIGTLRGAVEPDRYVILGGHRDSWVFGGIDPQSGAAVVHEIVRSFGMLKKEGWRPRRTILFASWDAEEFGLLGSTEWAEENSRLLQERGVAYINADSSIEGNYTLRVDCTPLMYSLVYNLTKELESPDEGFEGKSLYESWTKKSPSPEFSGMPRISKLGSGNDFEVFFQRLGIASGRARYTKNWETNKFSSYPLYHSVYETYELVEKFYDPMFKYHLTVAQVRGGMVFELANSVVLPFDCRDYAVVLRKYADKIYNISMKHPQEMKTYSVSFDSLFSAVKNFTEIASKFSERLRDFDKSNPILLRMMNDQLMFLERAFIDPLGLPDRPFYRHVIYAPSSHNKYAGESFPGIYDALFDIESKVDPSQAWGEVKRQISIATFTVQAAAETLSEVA
The test is described as follows: hit of CIS-display panning and ELISA screen on biotinylated PSMA (same antigen as in panning; signal at least 10-fold above background); column Antigen species. The method, then: (§1) Neutravidin-coated plates were blocked for 1 h in Starting Block T20 (Pierce) and then coated with biotinylated PSMA (using same antigen as in panning) or negative control for 1 h. Plates were rinsed with TBST and diluted lysate was applied to plates for 1 h. Following additional rinses, wells were treated with HRP-conjugated anti-Centyrin antibody (PAB25) for 1 h and then assayed with POD (Roche). Centyrins with signals at least 10-fold above background were selected for further analysis.

The target in test [2] is T2, chimpanzee PSMA extracellular domain with 6His and Avi tag (PSMW8), biotinylated (chimpanzee, UniProt Q04609 44-750 (human entry), biotinylated ; Biotinylated, presumably on the Avi tag, which is not in the letters. Glycosylated (expressed in HEK cells). PSMA forms a homodimer; one subunit is given.).
T2 construct: Expressed in 293HEK-expi cells; buffer with ZnCl2 to stabilize PSMA dimerization; also called chimp PSMA; Pan troglodytes PSMA
T2 chain: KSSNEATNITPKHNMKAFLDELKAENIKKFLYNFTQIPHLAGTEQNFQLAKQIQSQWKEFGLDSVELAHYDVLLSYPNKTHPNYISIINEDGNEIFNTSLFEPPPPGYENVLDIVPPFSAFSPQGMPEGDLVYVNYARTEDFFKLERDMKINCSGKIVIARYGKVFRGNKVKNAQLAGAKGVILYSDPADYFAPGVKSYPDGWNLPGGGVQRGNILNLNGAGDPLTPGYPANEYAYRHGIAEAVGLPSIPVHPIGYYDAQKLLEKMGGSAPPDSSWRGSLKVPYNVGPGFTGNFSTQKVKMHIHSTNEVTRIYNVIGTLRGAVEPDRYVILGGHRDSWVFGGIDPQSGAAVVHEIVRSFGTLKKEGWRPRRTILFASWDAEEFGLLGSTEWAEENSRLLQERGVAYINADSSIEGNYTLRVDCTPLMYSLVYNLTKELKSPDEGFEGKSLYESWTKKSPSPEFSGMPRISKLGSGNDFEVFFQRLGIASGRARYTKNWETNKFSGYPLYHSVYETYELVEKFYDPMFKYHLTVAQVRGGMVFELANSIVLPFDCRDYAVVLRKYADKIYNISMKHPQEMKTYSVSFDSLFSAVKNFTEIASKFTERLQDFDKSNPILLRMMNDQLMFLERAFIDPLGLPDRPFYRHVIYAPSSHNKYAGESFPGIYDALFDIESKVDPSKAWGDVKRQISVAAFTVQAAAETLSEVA
Described as above. Here is the method:
as §1

B1: P258AR6P1070_A05 (designed binder)
chain: LPAPKNLVVSRVTEDSARLSWTIDEQRDWFDSFLIQYQESEKVGEAIVLTVPGSERSYDLTGLKPGTEYTVSIYGVYHVYRSNPLSAIFTT
notes: FN3 domain (Centyrin), unconjugated, as screened from E. coli lysate; not shown: C-terminal poly-histidine tag
B1: the binding result in test [1] is on record as “binds”.

B2: P258AR6P1071_F04 (designed binder)
chain: B1 chain with T22V
notes: as for B1
As to B2, the binding result in test [1] is on record as “binds”.

B3: P258AR6P1071_D02 (designed binder)
chain: B1 chain with T22A, D31E
notes: as for B1
B3: the binding result in test [1] is “binds”.

B4: P258AR6P1070_F09 (designed binder)
chain: B1 chain with D31E
notes: as for B1
As for B4, the binding result in test [1] is “binds”.

B5: P258AR6P1071_G03 (designed binder)
chain: B1 chain with T22D
notes: as for B1
Turning to B5, the binding result in test [1] is “binds”.

B6: P234CR9_A7 (designed binder)
chain: LPAPKNLVVSRVTEDSARLSWGEQFTIFDSFLIQYQESEKVGEAIVLTVPGSERSYDLTGLKPGTEYTVSIYGASGYEWFHAFGSSNPLSAIFTT
notes: FN3 domain (Centyrin), unconjugated, as screened from E. coli lysate; also called P234CR9_A07; not shown: C-terminal poly-histidine tag
Regarding B6, the binding result in test [1] is given as “binds”.

B7: P229CR5P819_H11 (designed binder)
chain: LPAPKNLVVSRVTEDSARLSWDIDEQRDWFDSFLIQYQESEKVGEAIVLTVPGSERSYDLTGLKPGTEYTVSIYGVYHVYRSSNPLSAIFTT
notes: FN3 domain (Centyrin), unconjugated, as screened from E. coli lysate; also called P229CR9P819-H11; not shown: C-terminal poly-histidine tag
Turning to B7, the binding result in test [2] was “binds”.

B8: P234CR9_H01 (designed binder)
chain: LPAPKNLVVSRVTEDSARLSWEWWVIPGDFDSFLIQYQESEKVGEAIVLTVPGSERSYDLTGLKPGTEYTVSIYGVVNSGQWNDTSNPLSAIFTT
notes: as for B1
As to B8, in test [1], the binding result is given as “binds”.

B9: His-tagged P233FR9-H10 centyrin (designed binder)
chain: LPAPKNLVVSRVTEDSARLSWTAPDAAFDSFAIGYWEWDDDGEAIVLTVPGSERSYDLTGLKPGTEYPVYIAGVKGGQWSFPLSAIFTT
notes: FN3 domain (Centyrin), unconjugated; used in the screen and in the crystal structure with cynoPSMA; also called H10 FN3 domain; P233FR9_10; not shown: C-terminal His-tag
Turning to B9, the binding result in test [2] is “binds”.

B10: P233FR9P1001_D9 (designed binder)
chain: B9 chain with A32P, P68W
notes: as for B1
Take B10: the binding result in test [2] is listed as “binds”.

B11: P233FR9P1001_B5-5 (designed binder)
chain: B9 chain with A32T
notes: as for B1
As to B11, the binding result in test [2] is given as “binds”.

B12: P233FR9P1001_H3-1 (designed binder)
chain: B9 chain with A32P, P68H
notes: as for B1
Turning to B12, the binding result in test [2] is reported as “binds”.
